# Measurements reported in the supplement of paper PMC9170038.
# System: MS2 coat protein
# Experiment: apparent KD of MS2 coat protein; designed switch direction (-1 OFF switch, 1 ON switch): -1; higher = weaker reporter binding
# Procedure, shortened: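 Three titration conditions were used: no input, 200 uM small-molecule ligand, and an oligonucleotide input. In each, SNAP-549-labelled MS2 coat protein was raised from 0.7 or 1.5 nM, doubling, to 3 µM over designed RNA switches transcribed on Illumina chips by stalled E. coli RNA polymerase. Curve fits of normalised cluster fluorescence gave values whose per-design median over clusters is the apparent KD.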
# [1] = Eterna round: R95, input ligand: FMN 200 uM
# [2] = Eterna round: R95, input ligand: microRNA oligo, concentration not stated
# [3] = Eterna round: R95, input ligand: none
# [4] = input ligand: microRNA oligo, concentration not stated
Sequence,apparent KD of MS2 coat protein [1],apparent KD of MS2 coat protein [2],apparent KD of MS2 coat protein [3],apparent KD of MS2 coat protein (input ligand: FMN 200 uM),apparent KD of MS2 coat protein (input ligand: none),apparent KD of MS2 coat protein [4]
GGUUGACAUGAGGAUCACCCAUGUGAGGAUAUGCGAGAGAAAAAAGUGAGGAAGAAUUGCAGAAGGCGCUGUCG [salish99-ex1_r3_015] (puzzle: Exclusion 1),69.3 nM,37.1 nM,76.9 nM,,,
CCGGAAAUGAAGGAUAUAGGAGUCGAUAGACUCCUAGAAGGUCAUACAUGAGGAUCACCCAUGUGUCCUACCGG [Fiskers Ex 6 - 74] (puzzle: Exclusion 6),,12.9 nM,,,,
"AAUUAGCAAGCGAGAUCCCACAUGAGGAUCACCCAUGUGCUCGUCUUAUAAAAGACUGUGACGAAAGUCACGGUCAC [Mat - Sensor, turn-off var - Eli Mod - D26] (Eterna round: R97, puzzle: Sensor, turn-off variant 1)",,,,14 nM,15.9 nM,
CCGGAAAGGGAGGAUAUAGGAGUCGAUAGACACCUAGAAGGCCUGACAUGAGGAUCACCCAUGUGUCCUACCGG [Fiskers Ex 6 - 91] (puzzle: Exclusion 6),,13.7 nM,,,,
UAGAAGGUAGGAUAUACGAAUAAAUAGGGUAGUAAGAAUACACAUGAGGAUCACCCAUGUAGAAGGACCAAGAU [Mat - Exclusion 2 - Mod of my Tesla design - D32] (puzzle: Exclusion 2),43.1 nM,19.5 nM,20.9 nM,,,
CUGGUCCGAGGAUAUAUUAUGUGAAACAUGAGGAUCACCCAUGUAAUAUGAUGGAUAUAAAUAGAAGGCGGACUAG [Mat - Exclusion 5 - JL mod - D31] (puzzle: Exclusion 5),22.4 nM,19.9 nM,31.1 nM,,,
"GAGGUUUCAGGAUAUACAUGAGGAUCACCCAUGUUAUUAGUGUGGAUUGGUGUCCUGCGUAGAAGGGAGUAUAA [Eternabot (L2) Solution 93] (Eterna round: R97, puzzle: Exclusion 3)",,,,65.7 nM,57.2 nM,
AAUAACAGAGGAUAUACUAUUUUAUGUGUUUAUUGUUUUGAACAUGAGGAUCACCCAUGUAGAAGGCUGAAUAA [JMF 24] (puzzle: Exclusion 2),,22.3 nM,,,,
"CACGAACAUGAGGAUCACCCAUGUAAGGAUAUGGCCAACGACUUAAACUAAAGGUUGGCCAGAAGGUGCGGGUG [Eternabot (L2) Solution 61] (Eterna round: R97, puzzle: Exclusion 1)",,,,52.5 nM,286 nM,
"AGACAACAUGAGGAUCACCCAUGUAAGGAUAUACAAGAUUUGAGAAACGGACUGCCUUGUAGAAGGUACAGGUG [Eternabot (L2) Solution 9] (Eterna round: R97, puzzle: Exclusion 1)",,,,51 nM,36.7 nM,
"UUUACAAGCUAAUGAUCCCACAUGAGGAUCACCCAUGUUGCUGCCGUGAGGUAGCUUUUAACAUUUGCUCGUCUUAU [JL TOV1 3.40] (Eterna round: R97, puzzle: Sensor, turn-off variant 1)",,,,733 nM,1060 nM,
CAAAACAGAGGAUAUACAUUUCCUCACCGCCAAAUAGCGGAACAUGAGGAUCACCCAUGUAGAAGGCUGGAAAA [Usenqura] (puzzle: Exclusion 2),384 nM,37.1 nM,43.4 nM,,,
"AGAUUGCGGCAAGGAUAUCUUUGUCAACUUAAAACAUGAGGAUCACCCAUGUGCAUCUUCGUGUGAGAGAAGGUGCGGCGAUCC [Raesredi] (Eterna round: R96, puzzle: Exclusion NG 2)",,,,1430 nM,687 nM,368 nM
"GUACUGAAGCUUUGCUUUAAUCGUACAUGAGGAUCACCCAUGUAGGAUAUGGUAGGCAAAGCUUACCAGAAGGACAGAGUGAUC [Mat - Exclusion NG 3 - Mod of JL - D67] (Eterna round: R96, puzzle: Exclusion NG 3)",,,,103 nM,93.1 nM,92.1 nM
"GCGAGGUUAGGAUAUGCUGGCGUGGACUUGAGGAUCACCCAAGUGACUGCGGGCUAGGGCGCAGAAGGGACAAAAU [Usti] (Eterna round: R97, puzzle: Exclusion 5)",,,,45.1 nM,45.6 nM,
"UUAGAGUAAUAGGAUAUGCUACGUCACGGCUGUGCAGAAGGAUUAACAUGAGGAUCACCCAUGUGGUGAGUCCU [Eternabot (L1) Solution 31] (Eterna round: R97, puzzle: Exclusion 6)",,,,242 nM,985 nM,
"AUGAUGUGAGGAUAUUAGUAGGGUAGCAGAUGACUGCCUAAUAAGAAGGCACAUGAGGAUCACCCAUGUUCACU [Eternabot (L2) Solution 11] (Eterna round: R97, puzzle: Exclusion 4)",,,,135 nM,63.5 nM,
"AGCCACAGAGGAUAUACAUACAUCCAGUAGUUAAGAAUACUACAUGAGGAUCACCCAUGUAGAAGGCUGUGGCA [Omei Ex2 BD B6] (Eterna round: R97, puzzle: Exclusion 2)",,,,383 nM,84.3 nM,
